Test results reported in the DeepSol protein solubility set.

Test: soluble on expression in E. coli; label from the status in PepcDB or PDB records

Soluble on expression in E. coli, not soluble:
MGSDKIHHHHHHEPYSEIIEEDYVPTEADEIALLATTYSQLRFVMDWYGLFDLQEESGDVIVTPTRPNGWDDGGTYKQMHKHTWDNQQGQPQSIWDYCYKGIANANKILKRADEGFFTEESKPKVVAEVKGVRALWYSILCDTHGNIPIQTSFSEEVPVQSTRKQVFDFIINELKEVMPNLPTEVNKSTYGRLTQWGAKCLMARMYLNAGVYTGTPMWNECLEQCNDIINSGLFSLETNYTDIFKTENSGCVETIFAIPYDEVYNEGDNNGPVFGAHMKFLSSNSRKVFNMQTTPWGGSAANPQFINSYDPDDMRLKYTWLQGDQYSPDGVLITTFPNKLPSIYKTDTDDGYRVGKYEIKVGAKSLLSNDFPYFRYTEVLLMKAECLLRLGQNETEAAHIVSQIRERAFRESAHPEKATVDAAWLKGDTHINYGTLDEKGQIDDAGNTEVVELGGLYDEWGWEFAAEARRRTDMIRFGTYQKKSWFNHTPTANDLNGNSILFPIHLDHLNTNPNLQQNPGYAGK
MGSDKIHHHHHHFDEETAFQSPTLVYVNTVASLYNNMFKIMGNDRHVYDLNTFSSDEAMLPCRIGDWEDGGLWQNIFLHRWGTMNDLTKNSWDFLYEQIGKCNQSVDKLQAFAEEQPDVEYFKVYLEEVRAVRAFFYYELLDLFARVPLVTSSTTPMSEVKQSERSVVFNFVRSELEEALPYLSDNRSNQKGEYYGRITKPVAYMILAKLALNAEVYADDNWTDGNRPAGKNIKFTVDGKEMNAWEATIAYVDKLEALGYKLQGNFSENFAVANETSVENIFTVPMDPVAYPDAKDYNLVRTRHYDHATAYGQSGWNGSCATVKAMNVFKFGTADEDPRCKLTYFTGEVTGPDGKTIYTEWDGQKVPLKYEPNAPKVYMDASDGLLVKTAGARMAKYEFDQNAQDGGNLHGNDCVIFRFADALLMKAEAKIRLGQNGDDEVNQVRNRVGAKPLQNVTLDTLLDERMLELAWEGVRRQDLIRFGKFTEATVDRYVGVKHFASSLDYQEDKTGYTTVFSIYADILSLNPNLTQNPGY
MGSDKIHHHHHHGCSFLIKEVNVKQENEAGEMVAYIKAGEIATFTFSGEINIDGDASNETFIVGFLAPRSWNVRQNATVTYREDRYETEVDHKMTVIPDTEQPANYKGMSWSAALKKKYGVRGNVLNDMEWIAFKSDNYPSVNGTIHYTVTIKCNSGKSNLKFRPSFFINHSSDGIGGDEAHYSVKDADDCFEVVEGSGTVIDFCSTHYYQIEPLSALQDDYVTFTFQGDINTNELIKAENVYIEATAYTIEGKIYTVNEKSAKTLMKRETKLPRYNVTLWPGGFFNIPDGETISRIEYIFTNEDGTVSISQSDDSRDNEGEEVEEGIKEPFVFEFQCE
MGSDKIHHHHHHGGFTGAIADFPTAIHRAVKGQMQTTTDYLNGEQTEYDESVFTGEYHYYYEKLSDDDKLIYRQIYAMMQKRMDGISLNTTDTDNVSRIQQFVLLDNPQFFYIEKSQYTVRNSIIFSPVYNMSESDIDNAISTISGYVSACMAGIDEGASDYDKAVHFYEYVIEHAEYEENSPHNQDMYSAVLGRTVCQGYAMMFKYLCDRAGISSLIVTGTTSDANHAWNMVYLDGAWCAVDCTYGDGDYLGKGISYSWFGVPLDVVKLTRTLDNEDMLPQEASVEDDYYYRNGLYFTSYDLKVLQGMTTSSNYITFKFSDRETYDTACHSLFDKGDYKYLIPTARGGTITYMQEPNSLAVFIHIELGS
MGSDKIHHHHHHIEGPGTTENLKEFVTVDGKKDTQSGAFYLTTVGIRSATIFSAIKANFSDFQEVMSKKELMGDSSNSEYNRIQQYYMDSSKNAAIEQALKLAKVPYEMKFKGVYVLAMEDNSSFKGKIEVGDTVTGVDGKSFKSSEELMNYIKAQKVNQKVTVQFIQDGKAKEATGKLIELPTDKKAGIGIGLTDHTEIDSSIPVSIEAGDIGGPSAGLMFTLQTYEQLSHKDLRKGHEIAGTGTMNSQGIVGRIGGIDKKVVTASENGAEIFFAPDDEITSEMKKVEPKIKSNYQEAQEAAKKIGTKMKIVPVKTVQDALNYLEKLK
MGSDKIHHHHHHILVKNKIDNEFNWISMKEEQKLNVPIENQMPDLPNGCEVTSLSMLMNYYGIRVTKNELAQNIQHVSSFTNNGKYRGNPNQGFVGYMSIENAGWCVYNGPLYNVARKYTNRIQNATGSDFLSILKLVSDGHPVLIITTTTFNRVNNMQTWETNTGKVNVTPSSHACVITGYDKKKRIVYLNNPYGIKNQAVNWNNLENSYNQQGKQALYIK
MGSDKIHHHHHHIYWEFTTKNMLVLEFIEGIRIDDLESLNASKHNIKNITEIGTEVFFLQVFRDGFFHGDMHPGNILIDKEGALIPIDFGIMGRLSNKDRQFLALLLTYLLNKNYRKVVEIHDEANMLGKDVSHDHLSQAIRAISTPILNKPIGEVSLAKLLGQILSLSKKFNIEVQPQFTLLQKTMLMAEGTTRQINPNINMWELSRPLIDKWINDTHDPFKVLEEWFHKNKIALLKIPEIINKIDKILS
MGSDKIHHHHHHKDAAYPRAEAQTLDLAQKAIAIRSVRGEGNRTIDVANLFRDALLKGGWQVGDIEVTPVDDTAYIIATWKGSDPSLKPVVISGHMDVVEAKREDWERDPFVPVVENGILYGRGASDMKFDGALALSTLIELRRQGFKPKRTIVIEFSGDEETTMKTSAIIAEKLKNAELVINVDGGGGTLDEATGKPLYWTWQGAEKTYADYRLEVTNPGGHSSAPRPDNAIVQLSQALVKVGAYRFKAEQNDITRGYFEKAAPFTDRPEIAAAMRAFAANPADEKALATLRADPSMVGKVGTTCVPTMLGGGHAENALPQRAFANINCRIFPGHTKEAIMAELAQVVGDPAVKISDVTEGSVASPASPLRPDLMKAVTRAMTKAYPKVPLIPSQASGASDSMWFRALGVPSYGLSPSFSKDSEDFSHGLNERTRLSNIRPGITYYLTLITDLTK
MGSDKIHHHHHHLDDLSEFVDQVPLLDHHCHFLIDGKVPNRDDRLAQVSTEADKDYPLADTKNRLAYHGFLALAKEFALDANNPLAAMNDPGYATYNHRIFGHFHFKELLIDTGFVPDDPILDLDQTAELVGIPVKAIYRLETHAEDFMLEHDNFAAWWQAFSNDVKQAKAHGFVGFKSIAAYRVGLHLEPVNVIEAAAGFDTWKHSGEKRLTSKPLIDYMLYHVAPFIIAQDMPLQFHVGYGDADTDMYLGNPLLMRDYLKAFTKKGLKVVLLHCYPYHREAGYLASVFPNLYFDISLLDNLGPSGASRVFNEAVELAPYTRILFASDASTYPEMYGLAARQFKQALVAHFNQLPFVDLAQKKAWINAICWQTSAKLYHQERELRV
MGSDKIHHHHHHLETSPSSSVSGNELLGTATNALVSLNGVYRAMYTAGVSNSSNTHQCFGITAYNLVADVMGEDCIMNGQGSGWFWYDCVYNVKSRYTSTGWRSYDMWNGYYTWISNVNYILAEEETMSGSETEKNYVLGQAYAVRAYSYFMLAQMFSRTYKGHESEPCVPLYTEPTDIATEGKGRATIEEVYQQITSDLDKAITMLGNSGKRKHISHINEAVASGIKARVALVMEDWQTALDAANAAISKSGCSVGTGTAVTGGMNDATANNVMWAAEIIADQSGMYAGFFTHMDADQGKYGASARKQINKLLYAKLGTNDVRKKWWNPQDENNEKNGYQQEKFKFKDYAKWTGDYIFMRIEEMFLTAAEASCRLNDDKGARLMLNSLMQKRDEDYTCKKTGTALGKLTSDETGSLLEEIIIQRRIELWGEFGRIYDIRRLKQGFRRTADMGWPSSALIAGTDTEDPESYAWVLTIPQTEFDGNPNMDPSKDQNPIGDHK
MGSDKIHHHHHHLLLEQTNFRKEVNNIKIFNERNMNNLEYIIPECYADITNIYNNVIVMENIKGLTYNDVKDLDIEKKDIFGKLLMKFGLISILYTSAVHCDIHPGNLFFYINEDVKDKPKYQLGLIDFGIVSFPNRENQNFYYTFFKNIQIDKDFSKLEDVLRCILCEKDKFKNLDTIKKRLLKETIERNIIETDNKYDLDFFLKLSYTINVYGFTFTKEFNQICLSLQVVENLLKNLLLDIRKTQDEIIETFNNINKLIT
